This is an account of results in patent US8729028B2, “Noggin-derived peptide and use thereof” (Caregen Co., Ltd., priority 2009, dated 2014).

One data set deals with T1, BMP-4 (Homo sapiens, UniProt P12644).
T1 construct: purchased R&D Systems, Inc., USA
T1 sequence (P12644 293-408): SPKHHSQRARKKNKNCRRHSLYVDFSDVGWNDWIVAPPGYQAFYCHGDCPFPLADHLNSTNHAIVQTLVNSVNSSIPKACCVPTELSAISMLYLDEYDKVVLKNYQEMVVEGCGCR
In words: Melanin production in α-MSH-induced, BMP-4-treated melanocytes (antagonistic activity against BMP-4). The data set is classed as cell-based. The note with it: for melanin production: C57BL/6 mouse melanocytes, 200 μg/mL α-MSH, 1 μg/mL BMP-4, cultured 3 days, observed with naked eyes (FIG. 5). As for the experimental part: In order to investigate the antagonistic activity of the peptide synthesized in Synthesis Example against the growth factor BMP-4, C57BL/6 mouse melanocytes (Jung Ang Lab. Animal, Korea) were cultured and melanin production was induced with α-melanocyte stimulating hormone (α-MSH; Sigma). Then, after treating with BMP-4 (R&D Systems, Inc., USA) and then immediately with the synthesized peptide at different concentrations, it was checked whether the melanin production inhibited by BMP was activated again. The mouse melanocytes were cultured using DMEM (Sigma) containing 10% FBS (Sigma) at 37° C. under 5% CO2. After culturing the cells on a 24-well plate at 1×10^5 cells/well and confirming attachment of the cells, the cells were treated only with a solvent (control), with 200 μg/mL α-MSH (positive control) or with 1 μg/mL BMP-4. Then, the cells were treated with the peptide of SEQ ID NO: 1. After adding the test substance to each dish, the cells were cultured for 3 days. The test substance had been prepared by dissolving the ingredients in a solvent and diluting to the test concentration using a 5:3:2 mixture solvent of propylene glycol:ethanol:purified water. After removing the medium by centrifugation, the production of melanin could be observed with naked eyes.
For more accurate measurement, cells were washed with PBS and lysed with 1 N sodium hydroxide. Then, after measuring absorbance at 400 nm, inhibition of melanin production was calculated according to the Dooley's method (Dooley, T. P. et al., Skin Pharmacol. 7: 188-200 (1994)), and the result was shown in FIG. 6. The result shown in FIG. 6 coincides with that of FIG. 5.

Data set [1] deals with T2, rh-BMP4 protein (Homo sapiens, UniProt P12644).
T2 construct: purchased R&D Systems, Inc., USA
T2 sequence (P12644 293-408): T1 sequence (P12644 293-408)
As to the kind of experiment: Streptavidin chromatography with SDS-PAGE and western blot (immunobinding to BMP4). The note with it: streptavidin column, elution with NaCl, western blot with anti-BMP4 antibody (FIG. 8b). The data set is classed as binding. As for the experimental part:
The N-terminus of the peptide prepared in Synthesis Example was modified with biotin (Sigma, USA). For streptavidin chromatography, the biotinylated peptide was loaded in a column packed with streptavidin-attached resin and equilibrated with 20 mM sodium phosphate buffer. Then, after flowing rh-BMP4 protein (R&D Systems, Inc., USA) through the column, 200 mM sodium phosphate buffer was flown to flush unbound protein and the protein bound to the biotinylated peptide was fractionated by eluting with 0.2 M NaCl. The eluate was analyzed by SDS-PAGE (see FIG. 8a) and it was confirmed whether the BMP4 protein binds with the biotinylated peptide by western blotting using anti-BMP4 antibody (Santa Cruz, USA) (see FIG. 8b).

For the next data set, the system named is HaCaT keratinocytes. In words: SRB colorimetric assay of cellular growth, keratinocytes. The data set is classed as cell-based. The note with it: peptide 100 ng/mL, 72 hours, SRB absorbance 590 nm and microscopy (FIGS. 2a, 3). As for the experimental part: (§1) To analyze the growth factor-like effect of the peptide synthesized in Synthesis Example, sulforhodamine B (SRB) calorimetric assay was carried out using HaCaT keratinocytes (Korean Cell Line Bank) and NIH3T3 fibroblasts (Korean Cell Line Bank) according to Rizzino et al.'s method (Rizzino et al. Cancer Res. 48: 4266 (1988)).
(§2) HaCaT keratinocytes and NIH3T3 fibroblasts were cultured respectively in a 250-mL tissue culture flask in Eagle's minimal essential media (EMEM; Gibco, U.S.A.) containing 10% fetal bovine serum (FBS; Sigma). The cultured cells were treated with 0.25% trypsin solution to detach the cells from the bottom of the culture flask and centrifuged to collect cell pellets. They were resuspended in FBS-free EMEM and added to each well of a 96-well tissue culture plate, with 4×10^3 cells per well. The cells were cultured under 7% CO2 for 24 hours at 37° C. 24 hours later, the medium was changed with fresh, FBS-containing medium and the cells were incubated for 72 hours under the same conditions as described above with blank sample as reference or with the sterilized synthetic peptide (100 ng/mL) dissolved in water and 10% DMSO. After removing the supernatant, the cells were washed once with phosphate buffered saline (PBS). […] In addition, absorbance was measured at 590 nm to analyze cell proliferation.
On the technique in general: The SRB assay estimates cell density from bound dye.

The next data set has as its system NIH3T3 fibroblasts. As to the kind of experiment: SRB colorimetric assay of cellular growth, fibroblasts. The data set is classed as cell-based. The settings on record: NIH3T3, peptide 100 ng/mL, 72 hours, SRB absorbance 590 nm and microscopy (FIGS. 2b, 3). As for the experimental part:
as §1, §2

A further data set concerns HaCaT cells. As to the kind of experiment: Laminin and hyaluronic acid production (ELISA kits). The class given is cell-based. The note with it: 72 hours after treatment. As for the experimental part: HaCaT cells cultured for 48 hours were treated with the peptide synthesized in Synthesis Example. 72 hours later, the level of laminin and hyaluronic acid was measured as an indicator to show the improvement in skin wrinkles. The measurement was made using a laminin ELISA kit (Takara, Japan) and a hyaluronic acid ELISA kit (Takara, Japan).
A general note: In an ELISA, binding on a coated surface is turned into a signal by an enzyme label.

The target in data set [2] is T2, rh-BMP4 protein. In words: Biacore binding of peptide to immobilised BMP4. The settings on record: CM5 sensor chip, 6000 RU rh-BMP4, peptide 4-1000 μg/mL (FIG. 7). As for the experimental part:
(§3) In order to investigate whether the peptide synthesized according to the present disclosure binds to the BMP protein, the Biacore instrument allowing the detection of binding between drugs and receptors was used.
(§4) 6000 response units (RU) of rh-BMP4 protein (R&D Systems, Inc., USA) was fixed to a commercially available CM5 sensor chip (Biacore, Sweden) by amination. Then, HBS-EP buffer (Biacore, Sweden) was flown at a rate of 5 μL/min to activate the BMP4 protein on the CM5 sensor chip. After optimization for reaction, the synthesized peptide was flown at different concentrations (1000 μg/mL, 500 μg/mL, 250 μg/mL, 125 μg/mL, 62.5 μg/mL, 31.3 μg/mL, 15.6 μg/mL, 7.8 μg/mL, 4 μg/mL). The binding between BMP4 and the synthetic peptide could be identified from the increase in RU value.
For orientation: SPR reads the build-up and loss of mass on a sensor chip optically.

A short description of data set [3]: Thermal stability at 37° C. in phosphate buffer, HPLC quantification. The class given is physicochemical. The settings on record: 0.11 mg/mL phosphate buffer, days 0-70, compared with reference Noggin (FIG. 9). As for the experimental part: The peptide prepared in Synthesis Example and a reference growth factor (Noggin, FGF-10) purchased from NIBSC (UK) were prepared to 0.11 mg/mL phosphate buffer solutions. 1 mL of each prepared solution was put in a glass vial and kept at 37° C. The solution was sampled on days 0, 5, 10, 20, 30, 40 and 70. After centrifugation to remove any denatured peptide or protein, the supernatant was subjected to HPLC for quantification (FIG. 9).

In a further data set the test system is C57BL/6 mouse. In words: Hair growth on depilated back skin of mouse. The class given is in vivo. The settings on record: C57BL/6 mouse back, 10 μL of 1 μg/μL on days 0, 2 and 4, observed for 10 days, against PBS (FIG. 10). As for the experimental part:
In order to investigate the hair growth promoting effect of the peptide synthesized in Synthesis Example, hair of the back of a mouse (C57BL/6, Jung Ang Lab. Animal, Korea) was partially removed using hair removal cream. 10 μL of the peptide of SEQ ID NO: 1 (1 μg/μL) was administered or applied on the upper portion of the back of the mouse, and 10 μL of PBS was administered or applied on the lower portion of the back of the mouse, on days 0, 2 and 4.

The target in data set [4] is T3, rh-BMP4 protein (R&D Systems, Inc., USA) (human, UniProt P12644 293-408).
T3 construct: Bought protein; also called BMP protein
T3 sequence (looked up): T1 sequence (P12644 293-408)
As to the kind of experiment: SPR (Biacore), rh-BMP4 fixed on a CM5 chip, peptide flown at 4-1000 µg/mL. As for the experimental part:
as §3, §4

Where no end group is shown, it is not given here. The star is where a group is joined. Biotin = O=C1N[C@H]2[C@H](CS[C@H]2CCCCC(=O)*)N1

Turning to “α-melanocyte stimulating hormone [α-MSH, reference compound]”, the melanin production entry at BMP-4 was “abrupt increase in melanin production”.
For “biotinylated peptide: The N-terminus of the peptide prepared in Synthesis Example was modified with biotin (Biotin-ELIEHGGGRPAD)”, the “binding of BMP4 protein to peptide” value in the data set with rh-BMP4 protein [1] was “bound”.
For the molecule “Glu-Leu-Ile-Glu-His (SEQ ID NO:2)-Linker-Arg-Pro-Ala-Asp (SEQ ID NO:3) peptide (linker=Gly-Gly-Gly) (ELIEHGGGRPAD; listed as Homo sapiens) [SEQ ID NO: 1, noggin-derived peptide]”, the growth of keratinocytes result with HaCaT keratinocytes is reported as “promote the growth”. For the same molecule, the growth of fibroblasts result with NIH3T3 fibroblasts was “promote the growth”. Moreover, the “production of hyaluronic acid” value in the data set with HaCaT cells (hyaluronic acid ELISA kit (FIG. 4b)) is “increases the production”. Besides, the production of laminin result in the data set with HaCaT cells (laminin ELISA kit (FIG. 4a)) is reported as “increases the production”. Besides, the melanin production result with BMP-4 is recorded as “melanin production comparable to that of the α-MSH-treated group”. The BMP-4 activity result in the data set with BMP-4 (inferred from restored melanin production in BMP-4-treated mouse melanocytes (FIG. 5)) is recorded as “appropriately inhibits the BMP-4 activity”. Also, in the data set with rh-BMP4 protein [2], the “binding to BMP4 (increase in RU value)” value is “very strong binding ability”. Moreover, the “binding of BMP4 protein to peptide” value with rh-BMP4 protein [1] is listed as “very strongly binds”. Further, the thermal stability result in [3] is listed as “much superior thermal stability to the existing noggin peptide”. In addition, the hair growth result in the data set on C57BL/6 mouse is reported as “effective in promoting hair growth”.

B1: Glu-Leu-Ile-Glu-His (SEQ ID NO:2)-Linker-Arg-Pro-Ala-Asp (SEQ ID NO:3) peptide (linker=Gly-Gly-Gly) (SEQ ID NO:1) (peptide)
peptide: ELIEHGGGRPAD
notes: Made by solid-phase synthesis; The synthesis text describes an acetylation step with acetic anhydride after the last Fmoc removal; However, the printed theoretical weight of 1250.35 matches the peptide without an acetyl group, so no N-terminal acetyl is entered; also called synthesized peptide
Regarding B1, in [4], the binding result is “binds”.
